In patent US7598343B1, “Pharmaceutical formulations of bivalirudin and processes of making the same” (The Medicines Company, priority 2008, dated 2009):

Key:
Format in all cases: physicochemical
[1] = Asp^9-bivalirudin level by HPLC in portions of compounding solution adjusted to pH 8, 9, 10, 12 over time (Example 1, second part)
Procedure: In a second part of the study, four portions of the final compounding solution from the first part of the study were removed. The pH levels of these portions were adjusted to 8, 9, 10, and 12, respectively, using additional pH-adjusting solution and high shear mixing on a Silverson Laboratory Emulsifier (Model L4RT).
Samples of the portion of the compounding solution adjusted to pH 8 were taken immediately, and after about 80 minutes, 300 minutes, and 370 minutes. Samples of the portion of the compounding solution adjusted to pH 9 were taken immediately, after about 80 minutes, and 300 minutes. Further, samples of the portion of the compounding solution adjusted to pH 10 and 12 were taken immediately, after about 80 minutes and 170 minutes.

[2] = Asp^9-bivalirudin level by HPLC after adding pH-adjusting solution in four equal portions with inefficient mixing (Example 1, first part)
Procedure: In a first part of the study, the bivalirudin solution (˜600 mL) comprised bivalirudin at a concentration of ˜0.1 mg/mL in a 2.64% w/w mannitol solution. The pH-adjusting solution (233 mL) comprised 0.5 N sodium hydroxide in a 2.64% w/w mannitol solution. Asp^9-bivalirudin levels were measured throughout the experiment by high-performance liquid chromatography (HPLC). pH was also measured through the experiment. One measurement of Asp^9-bivalirudin was taken immediately after the bivalirudin solution was formed (baseline).
The pH-adjusting solution was added to the bivalirudin solution in four equal portions over the total duration of about 1 hour at a temperature of 5-8° C., each addition separated by about 15 minutes. The resulting compounding solution was mixed at between 600 rpm and 700 rpm throughout the addition of the first and second portions of the pH-adjusting solution, and the pH and Asp^9-bivalirudin levels were recorded (measurements #1 and #2). During the addition of the third portion, the mixer was turned off and the pH and Asp^9-bivalirudin levels were recorded (measurement #3A). The mixture was then subjected to high shear mixing at 4000 rpm for 30 seconds and the pH and Asp^9-bivalirudin levels were recorded (measurement #3B). During addition of the fourth portion, the mixer was turned off and the levels of pH and Asp^9-bivaluridin were recorded (measurement #4A). Mixing was then continued for, at least, two minutes at 5300 rpm and the pH was and Asp^9-bilvairudun levels were recorded (measurement #4B). The mixing rate was decreased to about 3600 rpm for 1 hour and the pH and Asp^9-bivalirudin levels were recorded (measurement #5). A portion of the material from measurement #4a was allowed to stand for 7 hours and the pH and Asp^9-bivalirudin levels were recorded (measurement #6).

[3] = Asp^9-bivalirudin level by HPLC after constant-rate addition of pH-adjusting solution under high shear mixing (Example 3)
Procedure: The bivalirudin solution (675 mL) comprised 64.4 g dissolved in 2.64% w/w mannitol solution. The bivalirudin solution was divided in half for evaluation of adding the pH-adjusting solution at two different mixing rates. The bivalirudin solution was placed in a vessel with a high shear mixer.
The pH-adjusting solution (131.2 mL) comprised 0.5 N sodium hydroxide in a 2.64% w/w mannitol solution. The pH-adjusting solution was loaded into a burette, which was connected on the bottom to a tube with a hose. The tube was positioned at the base of the high shear mixer blade inside the mixing vessel containing the bivalirudin solution. A clamp was used to restrict the pH-adjusting solution from passing through the hose.
The speed of the high shear mixer (Silverson Laboratory Emulsifier Model L4RT) was set to either 1500 rpm or 3000 rpm. The clamp on the hose was removed and the pH-adjusting solution was then added to the bivalirudin solution at a controlled, constant rate of approximately 2 L/min.
The volume of the compounding solution was then adjusted to a final volume of 562.5 mL.
For the compounding solution mixed at 1500 rpm, after the pH-adjusting solution was added, the mixing speed was increased to approximately 4500 rpm for a short period of time to allow faster and complete dissolution, and then reduced to 1500 rpm until the solution was completely dissolved. After complete dissolution, the resulting compounding solution was moved from the vessel to a beaker which contained a stir bar. The solution was adjusted to a target pH of 5.3 using 19 mL of the pH-adjusting solution, and then the volume was adjusted to a final volume of 562.5 mL.
For both mixing conditions, the pH was monitored throughout the addition of the pH-adjusting solution to the bivalirudin solution to form the compounding solution. The level of Asp^9-bivalirudin was measured by HPLC before (baseline) addition of the pH-adjusting solution, after the addition of the pH-adjusting solution (measurement #2), and after the volume of the compounding solution was adjusted to mark (measurement #3).

[4] = Isoelectric point of bivalirudin
[5] = Asp^9-bivalirudin level by HPLC after adding pH-adjusting solution in two portions of 75% and 25% at 400 rpm (Example 2)
Procedure: The bivalirudin solution (˜760 mL) comprised bivalirudin at a concentration of 0.050 mg/ml dissolved in a 2.64% w/w mannitol solution. The pH-adjusting solution (233 mL) comprised 0.5 N sodium hydroxide in a 2.64% w/w mannitol solution. The experiment was conducted at a temperature of about 8° C.
The pH-adjusting solution was divided into a 75% portion and a 25% portion of the total pH-adjusting solution volume. First, the pH and Asp^9-bivalirudin levels were measured before addition of the pH-adjusting solution (baseline). During addition of the 75% portion, at about 400 rpm, the pH was monitored during mixing until the pH achieved a constant level at which time the Asp^9-bivalirudin level was also measured (measurement #1). A portion of this material was allowed to sit for about 6.5 hours and the amount of Asp^9-bivalirudin was again measured (measurement #2). The 25% portion of the pH-adjusting solution was added about 30 minutes after the last base addition and mixing was continued at 400 rpm. The pH was initially recorded and then both the pH and Asp^9-bivalirudin levels were measured after about 30 minutes of mixing (measurement #3). The pH and Asp^9-bivalirudin levels were again recorded after mixing at 400 rpm overnight (measurement #4).

[6] = Asp^9-bivalirudin level by HPLC in compounding solution under high shear mixing (Example 1, third part)
Text: In a third part of the study, the final compounding solution from the first part of the study was placed into a recirculation vessel for use in a recirculation water bath (Precision Model 181) to be subjected to high shear mixing using a Silverson Laboratory Emulsifier (Model L4RT). Prior to this study, it was thought that bivalirudin solutions were unstable to both heat and shear, thus requiring extreme care in handling bivalirudin during the compounding process. Before subjecting the compounding solution to high shear mixing, the level of Asp^9-bivalirudin was recorded (measurement #1). The compounding solution was then subjected to high shear mixing at ˜6000 rpm for 30 minutes without use of the recirculation water bath; the temperature of the compounding solution due to the high shear mixing rose to about 36° C. A sample was then measured for Asp^9-bivalirudin level (measurement #2). The mixing speed was then slowed to 5000 rpm for 120 minutes and the temperature was measured at about 33° C., and another sample was analyzed for Asp^9-bivalirudin level (measurement #3).

Substance: D-Phenylalanyl-L-Prolyl-L-Arginyl-L-Prolyl-Glycyl-Glycyl-Glycyl-Glycyl-L-Asparagyl-Glycyl-L-Aspartyl-L-Phenylalanyl-L-Glutamyl-L-Glutamyl-L-Isoleucyl-L-Prolyl-L-Glutamyl-L-Glutamyl-L-Tyrosyl-L-Leucine trifluoroacetate (salt) hydrate [bivalirudin]
- % Asp^9-bivalirudin ([1]; Baseline, pH 5): 0.71%
- % Asp^9-bivalirudin ([1]; pH 8, after pH was adjusted): 0.71%
- % Asp^9-bivalirudin ([1]; pH 8, after ~80 minutes): 0.77%
- % Asp^9-bivalirudin ([1]; pH 8, after ~300 minutes): 1.11%
- % Asp^9-bivalirudin ([1]; pH 8, after ~370 minutes): 1.26%
- % Asp^9-bivalirudin ([1]; pH 9, after pH was adjusted): 0.84%
- % Asp^9-bivalirudin ([1]; pH 9, after ~80 minutes): 1.07%
- % Asp^9-bivalirudin ([1]; pH 9, after ~300 minutes): 1.84%
- % Asp^9-bivalirudin ([1]; pH 10, after pH was adjusted): 1.24%
- % Asp^9-bivalirudin ([1]; pH 10, after ~80 minutes): 2.08%
- % Asp^9-bivalirudin ([1]; pH 10, after ~170 minutes): 2.59%
- % Asp^9-bivalirudin ([1]; pH 12, after pH was adjusted): 4.71%
- % Asp^9-bivalirudin ([1]; pH 12, after ~80 minutes): 8.20%
- % Asp^9-bivalirudin ([1]; pH 12, after ~170 minutes): 10.95%
- % Asp^9-bivalirudin ([2]; #2: after addition of second portion of pH-adjusting solution, pH 4.2): 0.43%
- % Asp^9-bivalirudin ([2]; #3A: after addition of third portion with no mixing, pH ~6 to 8): 0.45%
- % Asp^9-bivalirudin ([2]; #3B: same as #3A but after mixing (4000 rpm, 30 seconds), pH 5.0): 0.74%
- % Asp^9-bivalirudin ([2]; #4A: after fourth portion, sat for 10 minutes with no mixing, pH ~8.5 to 9): 0.60%
- % Asp^9-bivalirudin ([2]; #4B: same as #4A but after mixing, pH 6.0 to 6.5): 0.57%
- % Asp^9-bivalirudin ([2]; #5: same as #4A but after high speed mixing for 1 hour, pH 5.0): 0.71%
- % Asp^9-bivalirudin ([2]; #6: same as #4A but 7 hours later with no mixing, pH ~8.5 to 9): 2.05%
- % Asp^9-bivalirudin ([2]; Baseline: after bivalirudin solution was formed, pH ~2.5): ~0.42%
- % Asp^9-bivalirudin ([3]; 1500 rpm, #1 after addition of pH-adjusting solution, pH ~6.0): 0.31%
- % Asp^9-bivalirudin ([3]; 1500 rpm, #2 after compounding solution was adjusted to mark, pH 5.3): 0.34%
- % Asp^9-bivalirudin ([3]; 1500 rpm, Baseline before addition of pH-adjusting solution, pH ~2.5): 0.38%
- % Asp^9-bivalirudin ([3]; 3000 rpm, #1 after addition of pH-adjusting solution, pH ~5.6): 0.41%
- % Asp^9-bivalirudin ([3]; 3000 rpm, #2 after compounding solution was adjusted to mark, pH 5.25): 0.40%
- % Asp^9-bivalirudin ([3]; 3000 rpm, Baseline before addition of pH-adjusting solution, pH ~2.5): 0.43%
- degradation by high shear mixing ([3]; high shear mixing even up to 4500 rpm): not susceptible to degradation
- isoelectric point [4]: about 3.6
- % Asp^9-bivalirudin ([5]; #1: after addition of 75% portion, pH peak at 12.2 then dropped to 8-9): 0.44%
- % Asp^9-bivalirudin ([5]; #2: same as #1 but after sitting for 6.5 hours with no stirring): 0.88%
- % Asp^9-bivalirudin ([5]; #3: remaining 25% added, pH 12.4 initially then 7.7 after 30 minutes, taken from the bottom): 2.19%
- % Asp^9-bivalirudin ([5]; #3: remaining 25% added, pH 12.4 initially then 7.7 after 30 minutes, taken from the top): 1.85%
- % Asp^9-bivalirudin ([5]; #4: same as #3 but after mixing overnight, pH 5.0): 1.57%
- % Asp^9-bivalirudin ([5]; Baseline: after bivalirudin solution was formed, pH 1.71): 0.42%
- % Asp^9-bivalirudin ([6]; #1: before high shear mixing, RT ~20° C.): 0.71%
- % Asp^9-bivalirudin ([6]; #2: after high shear mixing at 6000 rpm for 30 minutes, 36° C.): 0.71%
- % Asp^9-bivalirudin ([6]; #3: after mixing rate was reduced to 5000 rpm for 120 minutes, 33° C.): 0.75%
- stability to high shear mixing conditions ([6]; high shear mixing 6000/5000 rpm): stable
